One experiment relates to THP1 cells. As to the kind of experiment: Chemokine dose-response, THP1 cell migration. The format is cell-based, human. As to conditions: mean of biological replicates (2-7); for Mean pEC80: 3-parameter log-logistic fit, maximum fixed at 100%. How it is done: Cell lines were confirmed mycoplasma free by monthly testing using a MycoAlert^TM kit (LT07-118, Lonza) following the manufacturer’s instructions. THP1 cells: THP1 cells (ECACC 88081201, a human monocyte leukemia cell line[51]) were obtained from ECACC and were cultured in T175 flasks at 0.3-1 × 10^6 cells/mL in Roswell Park Memorial Institute (RPMI) 1640 medium (R0883, Sigma) with 10% FBS (F9665, Sigma) and 5mM L-glutamine (G7513, Sigma), 37 °C, 5% CO2. J:CXCR1 cells: The J:CXCR1 cell line was cultured in the same manner as THP1 cells at 0.15-1 × 10^6 cells per mL[37]. Activated T-cells: T-cells were isolated, activated and expanded as follows. Briefly, density gradient centrifugation using Lymphoprep^TM density gradient medium (07801, […] Technologies) and a SepMate^TM isolation tube (85450, […] Technologies) was used to isolate peripheral blood mononuclear cells from human leukocyte cones. Two rounds of purification using a human CD8 + T-cell isolation kit (480011, BioLegend) were used to isolate CD8 + T-cells from peripheral blood mononuclear cells. Activation of CD8 + T-cells was performed in ImmunoCult^TM-XF T-cell expansion medium (10982, […] Technologies) with an anti-CD3/anti-CD28 T-cell activator at 25 μl/ml (10991, […] Technologies), supplemented with 10 ng/ml recombinant human IL-2 (200-02, PeproTech) with 1% penicillin/streptomycin. T-cells were passaged every 2–3 days in TexMACS medium (130-097-196, Miltenyi Biotec), supplemented with 10 ng/ml human IL-2 (200-05-250, Peprotech) and incubated at 37 °C in 5% CO2. CD8 + T-cells were frozen at day 10-13 after initial activation, at 20×10^6 cell/ml in TexMACS medium supplemented with 10% DMSO (D2650, Sigma) in liquid nitrogen. Activated CD8^+ T-cells were recovered in TexMACs medium at 0.3 × 10^6 cell/ml and incubated at 37 °C in 5% CO2, 24 h prior to use. For buffy coat experiments a mixture of primary human monocytes, granulocytes and lymphocytes was isolated from human buffy coat. Briefly, RBCs were sedimented in HetaSep (07806, […] Technologies) with 1 mL of HetaSep per 5 mL of blood for 15 min at 37 °C. The buffy coat layer was collected from the top and washed in 50 ml MACS buffer (PBS (P4417, Sigma), 0.5% BSA (A7030, Sigma), 0.075% EDTA (E5134, Sigma), pH 7.2), by centrifugation at 2000 g for 10 min at room temperature. The pellet was resuspended in 10 mL of 1x RBC lysis solution (130-094-183, Miltenyi Biotec) and lysed for 10 min at room temperature. The cells were then washed in MACS buffer twice as above. The final pellet was resuspended in 1 mL of MACS buffer per 5 mL of initial blood volume and counted using cell size FSC-H/SSC-H parameters with gate settings previously defined by immunostaining (see below). The leukocytes were then resuspended in assay buffer for cell migration and used within 30 min of isolation.
Cell counts were determined using an ATTUNE NxT Flow Cytometer with Cytkick autosampler (ThermoFisher), based on cell size parameters FSC-H/SSC-H, with previously defined gate settings. FSC-H/SSC-H gate settings for primary white blood cells from buffy coats were determined using flow cytometry to establish the granulocyte, monocyte and lymphocyte populations (Supplementary Fig. 13). Briefly, cells were labelled with anti-CD3 (Miltenyi Biotec, 130-113-135) to identify the T cell population, anti-CD14 (Miltenyi Biotec, 130-110-578) to identify the monocyte population, and with anti-CD16 (Miltenyi Biotec, 130-113-951) to identify the granulocyte population. Negative control cells were labelled with anti-human IgG1 (Miltenyi Biotec, 130-113-434). All antibodies were allophycocyanin (APC) conjugated. 100,000 white blood cells were added to Eppendorf tubes and centrifuged at 300 g for 3 min. The supernatant was discarded, and the cells resuspended in 98 µL of MACS buffer (1× PBS, 2 mM EDTA and 0.5% BSA, sterile filtered). 2 µl of antibody was added to the cells. […]

The next experiment relates to activated T-cells (ATC). As to the kind of experiment: Chemokine dose-response, activated T-cell (ATC) migration. Particulars: mean of biological replicates (3-6). The format is cell-based, human. How it is done:
Cell lines were confirmed mycoplasma free by monthly testing using a MycoAlert^TM kit (LT07-118, Lonza) following the manufacturer’s instructions. THP1 cells: THP1 cells (ECACC 88081201, a human monocyte leukemia cell line[51]) were obtained from ECACC and were cultured in T175 flasks at 0.3-1 × 10^6 cells/mL in Roswell Park Memorial Institute (RPMI) 1640 medium (R0883, Sigma) with 10% FBS (F9665, Sigma) and 5mM L-glutamine (G7513, Sigma), 37 °C, 5% CO2. J:CXCR1 cells: The J:CXCR1 cell line was cultured in the same manner as THP1 cells at 0.15-1 × 10^6 cells per mL[37]. Activated T-cells: T-cells were isolated, activated and expanded as follows. […] The final pellet was resuspended in 1 mL of MACS buffer per 5 mL of initial blood volume and counted using cell size FSC-H/SSC-H parameters with gate settings previously defined by immunostaining (see below). […]
Cell counts were determined using an ATTUNE NxT Flow Cytometer with Cytkick autosampler (ThermoFisher), based on cell size parameters FSC-H/SSC-H, with previously defined gate settings. FSC-H/SSC-H gate settings for primary white blood cells from buffy coats were determined using flow cytometry to establish the granulocyte, monocyte and lymphocyte populations (Supplementary Fig. 13). […]

B1: CCL8: human chemokine, Peprotech 300-15 (protein, UniProt P80075 24-99, looked up)
C-C motif chemokine 8: QPDSVSIPITCCFNVINRKIPIQRLESYTRITNIQCPKEAVIFKTKRGKEVCADPKERWVRDSMKHLDQIFQNLKP
As for B1, in the experiment on THP1 cells, the “Mean pEC80” value is 7.84 [M] and the “Mean pEC50” value was 8.19 [M].

B2: CCL21: human chemokine, Peprotech 300-35A (protein)
chain: SDGGAQDCCLKYSQRKIPAKVVRSYRKQEPSLGCSIPAILFLPRKRSQAELCADPKELWVQQLMQHLDKTPSPQKPAQGCRKDRGASKTGKKGKGSKGCKRTERSQTPKGP
As for B2, in the experiment with activated T-cells (ATC), the “Mean pEC50” value was 7.98 [M] and the “Mean pEC80” value is 7.42 [M].

B3: CCL23: human chemokine, Biolegend 587002 (protein, UniProt P55773 22-120, looked up)
C-C motif chemokine 23: RVTKDAETEFMMSKLPLENPVLLDRFHATSADCCISYTPRSIPCSLLESYFETNSECSKPGVIFLTKKGRRFCANPSDKQVQVCMRMLKLDTRIKTRKN
Regarding B3, in the experiment with THP1 cells, the “Mean pEC80” value is 8.66 [M] and the “Mean pEC50” value was 8.97 [M].

B4: CCL14: human chemokine, Peprotech 300-38B (protein, UniProt Q16627 20-93, looked up)
C-C motif chemokine 14: TKTESSSRGPYHPSECCFTYTTYKIPRQRIMDYYETNSQCSKPGIVFITKRGHSVCTNPSDKWVQDYIKDMKEN
For B4, in the experiment with THP1 cells, the “Mean pEC80” value was 9.23 [M] and the “Mean pEC50” value was 9.61 [M].

Values taken from article PMC11969024, “Development of chemokine network inhibitors using combinatorial saturation mutagenesis” (Communications Biology, 2025).
